One may read the stoichiometry N as a count of units in the complex or per binding partner.

The values below come from PMC8749428.

For test [1], the target named is PltC-His6. In words: SEC.
Test [2] has as its target PltB-Strep. As to the kind of experiment: SEC.
Test [3] addresses PltA-CdtB-His6 (Salmonella enterica serovar Typhi) (UniProt Q8Z6A7). As to the kind of experiment: pull-down.
For test [4], the target named is PltC (untagged, His tag removed). In words: crystal structure.

In test [1], PltC-His6 (natural protein) displayed a stoichiometry N of 5.
PltB-Strep (natural protein) registered a stoichiometry N in test [2] of 5.
In the case of “PltC (untagged, His tag removed) (natural protein)”, the fold copurified relative to PltB in test [3] turned out to be 2 fold. Besides, the stoichiometry N in test [4] stood at 5.
